Measurements taken from paper PMC10850085 (Nature Communications, 2024).
No end group written: not given here. *: point of attachment. Biotin = O=C1N[C@H]2[C@H](CS[C@H]2CCCCC(=O)*)N1

How the values were obtained:
[1] = target: murine TpoR ectodomain, monomeric (TpoR_(1-479)) (mouse) (UniProt Q08351)
[2] = target: murine TpoR ectodomain, monomeric (TpoR_(1-479)) (mouse) (UniProt Q08351); assay: SPR; high concentrations of the Tpo F162E mutant, up to 10 µM; which TpoR form and which partner was immobilised is not stated
[3] = target: T1, murine TpoR ectodomain, monomeric (TpoR_(1-479)) (mouse, UniProt Q08351 26-479, N-linked glycans at N117, N178, N349; tryptophan mannosylation (W465, W468)); assay: SPR; TpoR over immobilised romiplostim peptide
T1 chain: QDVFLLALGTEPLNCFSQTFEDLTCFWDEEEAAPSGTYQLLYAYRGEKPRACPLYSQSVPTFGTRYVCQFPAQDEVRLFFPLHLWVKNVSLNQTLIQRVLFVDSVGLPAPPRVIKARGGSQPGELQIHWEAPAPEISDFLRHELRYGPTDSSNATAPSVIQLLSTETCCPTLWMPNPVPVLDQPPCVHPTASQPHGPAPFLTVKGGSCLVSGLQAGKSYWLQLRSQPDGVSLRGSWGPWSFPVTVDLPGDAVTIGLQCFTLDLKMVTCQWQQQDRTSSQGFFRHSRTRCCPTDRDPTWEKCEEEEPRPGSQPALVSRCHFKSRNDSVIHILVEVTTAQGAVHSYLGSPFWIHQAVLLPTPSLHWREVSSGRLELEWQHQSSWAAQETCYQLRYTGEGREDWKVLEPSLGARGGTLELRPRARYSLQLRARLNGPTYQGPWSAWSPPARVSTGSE

[4] = target: T1, murine TpoR ectodomain, monomeric …; assay: SPR; TpoR over immobilised romiplostim peptide
[5] = target: T2, murine TpoR ectodomain, monomeric (TpoR_(1-479)) (mouse, UniProt Q08351 26-479, N-linked glycans at N117, N178, N349; tryptophan mannosylation (W465, W468)); assay: SPR; TpoR (monomeric, dimeric or mutants) as analyte over N-terminally biotinylated romiplostim peptides on streptavidin chips; HBS-EP; two-fold dilution series, highest 100 nM; details: both partners purified
T2 construct: signal peptide in the construct; Thrombopoietin receptor (c-Mpl), mouse, residues 1-479, followed by a TEV cleavage site and the Fc domain of hIgG1; Eluted from Protein G resin by TEV cleavage; residues of the TEV site may remain at the C-terminus; also called murine TpoR (monomeric); source: Expi293F cells, transiently transfected, secreted; purified (Protein G Sepharose, TEV elution, Superdex …)
T2 sequence (looked up): T1 chain

In the case of “murine Tpo D29E (site II mutant) (from UniProt P40226 22-356) (ligand)”, the ability to induce differentiation of M1(TpoR) cells, fold decrease relative to the WT [1] is reported as 100 fold.

Molecule “murine Tpo D29Y (site II mutant) (from UniProt P40226 22-356) (ligand)” has an ability to induce differentiation of M1(TpoR) cells, fold decrease relative to the WT [1] of 100 fold.

Molecule “murine Tpo F162E (site I mutant) (from UniProt P40226 22-356) (ligand)” has a Kd [2] of over 10 µM.

B1: peptide version of romiplostim (two copies of IEGPTLRQWLAARA connected by a GG linker) (peptide)
peptide: Biotin-IEGPTLRQWLAARAGGIEGPTLRQWLAARA
notes: two copies of the TpoR agonist peptide joined by GG; Not the Fc fusion drug itself; The biotin is stated for the peptides coupled to streptavidin chips; also called romiplostim peptide; dimeric romiplostim peptide; source: synthetic peptide
For B1, the Kd [3] was 0.071 µM, the koff [4] was 0.017 s⁻¹ and the binding result [5] was “binds”.

B2: monomeric version of the romiplostim peptide (peptide)
peptide: Biotin-IEGPTLRQWLAARA
notes: TpoR agonist peptide motif of romiplostim; also called monomeric-romiplostim; monomeric version of the peptide; source: synthetic peptide
B2: binds [5].
